Laboratory results: patent US20040265295

Target: T1, His-PIPKIγ661 C-terminus, wild-type (439-661)
T1 chain: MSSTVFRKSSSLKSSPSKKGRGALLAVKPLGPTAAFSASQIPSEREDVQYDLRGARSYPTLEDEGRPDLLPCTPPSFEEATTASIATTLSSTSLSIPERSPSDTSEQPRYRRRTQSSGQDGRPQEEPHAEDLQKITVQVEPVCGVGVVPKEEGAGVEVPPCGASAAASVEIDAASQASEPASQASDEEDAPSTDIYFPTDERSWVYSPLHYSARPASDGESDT

B1: focal adhesion-associated kinase (FAK) (protein)
chain: MAAAYLDPNLNHTPSSSTKTHLGTGMERSPGAMERVLKVFHHFESSSEPTTWASIIRHGDATDVRGIIQKIVDSHKVKHVACYGFRLSHLRSEEVHWLHVDMGVSSVREKYELAHPPEEWKYELRIRYLPKGFLNQFTEDKPTLNFFYQQVKSDYMQEIADQVDQEIALKLGCLEIRRSYWEMRGNALEKKSNYEVLEKDVGLKRFFPKSLLDSVKAKTLRKLIQQTFRQFANLNREESILKFFEILSPVYRFDKECFKCALGSSWIISVELAIGPEEGISYLTDKGCNPTHLADFNQVQTIQYSNSEDKDRKGMLQLKIAGAPEPLTVTAPSLTIAENMADLIDGYCRLVNGATQSFIIRPQKEGERALPSIPKLANSEKQGMRTHAVSVSHCQHKVKKARRFLPLVFCSLEPPPTDEISGDETDDYAEIIDEEDTYTMPSKSYGIDEARDYEIQRERIELGRCIGEGQFGDVHQGVYLSPENPALAVAIKTCKNCTSDSVREKFLQEALTMRQFDHPHIVKLIGVITENPVWIIMELCTLGELRSFLQVRKYSLDLASLILYAYQLSTALAYLESKRFVHRDIAARNVLVSSNDCVKLGDFGLSRYMEDSTYYKASKGKLPIKWMAPESINFRRFTSASDVWMFGVCMWEILMHGVKPFQGVKNNDVIGRIENGERLPMPPNCPPTLYSLMTKCWAYDPSRRPRFTELKAQLSTILEEEKVQQEERMRMESRRQATVSWDSGGSDEAPPKPSRPGYPSPRSSEGFYPSPQHMVQTNHYQVSGYPGSHGIPAMAGSIYQGQASLLDQTELWNHRPQEMSMWQPSVEDSAALDLRGMGQVLPPHLMEERLIRQQQEMEEDQRWLEKEERFLKPDVRLSRGSIDREDGSFQGPTGNQHIYQPVGKPDPAAPPKKPPRPGAPGHLSNLSSISSPADSYNEGVKLQPQEISPPPTANLDRSNDKVYENVTGLVKAVIEMSSKIQPAPPEEYVPMVKEVGLALRTLLATVDETIPALPASTHREIEMAQKLLNSDLGELISKMKLAQQYVMTSLQQEYKKQMLTAAHALAVDAKNLLDVIDQARLKMLGQTRPH
  in vitro kinase assay, phosphorylation of the recombinant substrate: while FAK does not
